Experiment [1] concerns the target T1, Cynomolgus Monkey CD3 epsilon protein (Cynomolgus monkey, UniProt Q95LI5 22-117).
T1 construct: Bought protein; also called Cyno-Monkey CD3epsilon
T1 sequence (looked up): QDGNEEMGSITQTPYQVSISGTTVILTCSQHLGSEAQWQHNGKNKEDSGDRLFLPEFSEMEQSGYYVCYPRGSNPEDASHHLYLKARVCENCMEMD
Kind of experiment: ELISA, antigen coated on plate. (In an ELISA, binding on a coated surface is turned into a signal by an enzyme label.)

The target in experiment [2] is T2, human CD3 expressed on cells (Jurkat cells; human CD4 T cells) (human, UniProt P07766 23-207).
T2 construct: whole, on cells; also called human CD3 receptor on T cell surface; human CD3 expressing cells (Jurkat cells)
T2 sequence (P07766 23-207): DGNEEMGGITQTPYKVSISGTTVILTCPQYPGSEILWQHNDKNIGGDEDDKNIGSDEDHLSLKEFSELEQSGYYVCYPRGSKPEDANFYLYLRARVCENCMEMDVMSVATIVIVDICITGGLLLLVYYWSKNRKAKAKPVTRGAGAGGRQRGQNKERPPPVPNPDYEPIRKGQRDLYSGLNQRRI
Nature of the experiment: flow cytometry on Jurkat cells. The procedure: Various concentrations of testing mAbs were added to Jurkat cells, and then the binding activity of mAbs onto the surface of cells was detected by 2nd antibody-FITC. OKT3 was used as the positive control. The stained cells were analyzed by using a BD Biosciences FACSCanto II instrument and Flow Jo Version software. The binding EC₅₀ were calculated by using GraphPad Prism software equation: Nonlinear regression (curve fit)—log (agonist) vs. response-Variable slope.

For experiment [3], the target named is T3, Human CD3 epsilon (CD3epsilon) protein (His Tag) (human, UniProt P07766 23-126).
T3 construct: extracellular domain; Bought protein; also called recombinant human CD3epsilon ECD; not shown: His tag
T3 sequence (P07766 23-126): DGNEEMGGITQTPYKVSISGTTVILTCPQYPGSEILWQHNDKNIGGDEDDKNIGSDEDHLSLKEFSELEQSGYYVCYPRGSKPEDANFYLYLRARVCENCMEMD
Nature of the experiment: ELISA, antigen coated on plate.

The target in experiment [4] is T1, Cynomolgus Monkey CD3 epsilon protein. Nature of the experiment: ELISA, antigen coated on plate. This is another data set of the same source.
Experiment [5] concerns the target T3, Human CD3 epsilon (CD3epsilon) protein …. Kind of experiment: ELISA, antigen coated on plate, HRP-labelled 2nd antibody. The procedure: (§1) Human CD3epsilon, CD3delta and CD3gamma proteins were pre-coated in 96-well plates, respectively. The binding affinity of eight mAbs at various concentrations to these three different CD3 protein extracellular domain was detected by corresponding HRP labeled 2nd antibodies. The binding EC₅₀ (concentration of the test antibody when reaching half maximum binding) were analyzed by using GraphPad Prism software equation: Nonlinear regression (curve fit)—log (agonist) vs. response-Variable slope.

For experiment [6], the target named is T4, Human CD3 delta (CD3 delta) protein (His Tag) (human, UniProt P04234 22-105).
T4 construct: extracellular domain; Bought protein; not shown: His tag
T4 sequence (P04234 22-105, stated change not applied): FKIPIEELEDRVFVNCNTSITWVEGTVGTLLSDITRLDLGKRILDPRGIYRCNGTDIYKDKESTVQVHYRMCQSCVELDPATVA
The experiment is described as above. The procedure:
as §1

The target of experiment [7] is T5, Human CD3 Gamma (CD3gamma) protein (human, UniProt P09693 23-116).
T5 construct: extracellular domain; Bought protein
T5 sequence (P09693 23-116): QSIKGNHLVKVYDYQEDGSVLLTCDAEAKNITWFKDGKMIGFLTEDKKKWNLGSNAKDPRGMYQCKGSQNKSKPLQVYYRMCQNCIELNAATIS
Described as above. The procedure: as §1

Experiment [8] has as its target T4, Human CD3 delta (CD3 delta) protein …. Kind of experiment: ELISA, antigen coated on plate.
Experiment [9] deals with T5, Human CD3 Gamma (CD3gamma) protein. Nature of the experiment: ELISA, antigen coated on plate.
For experiment [10], the target named is T6, mouse CD3epsilon protein (mouse, UniProt P22646 22-108, limits assumed). Nature of the experiment: ELISA, antigen coated on plate.
T6 sequence (P22646 22-108 limits assumed): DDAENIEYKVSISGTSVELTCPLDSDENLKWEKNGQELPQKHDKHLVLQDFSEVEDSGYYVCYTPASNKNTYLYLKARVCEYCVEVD
Experiment [11] addresses T3, Human CD3 epsilon (CD3epsilon) protein …. Nature of the experiment: ELISA, antigen coated on plate. The source holds these as a separate data set.
In experiment [12] the target is T6, mouse CD3epsilon protein. Kind of experiment: ELISA, antigen coated on plate. This is another data set of the same source.
Experiment [13] has as its target T1, Cynomolgus Monkey CD3 epsilon protein. Nature of the experiment: ELISA, antigen coated on plate. The source holds these as a separate data set.
Experiment [14] concerns the target T2, human CD3 expressed on cells (Jurkat …). Nature of the experiment: flow cytometry on human CD4 T cells. (Flow cytometry measures light scatter and fluorescence of single cells or particles in a stream.)
Experiment [15] shares this target. Kind of experiment: flow cytometry on Jurkat cells, one site saturation fit. The arrangement: Best fit-Bmax: unit not given here.

Experimental findings from patent US20200299384A1 (published 2020) are described below.

Read-outs that look alike come from different tables or passages of the source.

B1: WBP3311_2.166.48 (antibody, IgG2a, V domains shown)
VH: QVQLQQSGPELVKPGASVKIACKASGYSFTTYYIHWVKQRPGQGLEWIGWIFPGNDNIKYSEKFKGKATLTADTSSSTAYMQLSSLTSEDSAVYFCAIDSVSIYYFDYWGQGTTLTVSS
VL: DIVMSQSPSSLAVSAGEKVTMSCKSSQSLLNSRTRKNYLAWYQQKPGQSPKLLIYWASTRKSGVPDRFTGSGSGTDFTLTINSVQAEDLAVYYCTQSFILRTFGGGTKLEIK
notes: Mouse monoclonal antibody from hybridoma; also called W3311-2.166.48; W3311_2.166.48
For the molecule B1, the EC50 (in general, the concentration that produces a half-maximal response) in experiment [1] is 125 pM; in experiment [2], 6910 pM; in experiment [3], 49 pM; in experiment [4], 33 pM; in experiment [14], 3510 pM. The “MFI (FACS)” value in [2] amounted to 2140 MFI. In addition, the “ELISA (A450)” value in experiment [5] is 1.64 A450; in experiment [6], 0.05 A450; in experiment [7], 0.05 A450; in [11], 2.76 A450; in [12] it was 0.446 A450; in experiment [13] it was 2.81 A450. In addition, the binding result in [8], in experiment [9] and in experiment [10] was “no binding” throughout. The “Best fit-Bmax” value in [15] is 1.26e-10. Further, binding in experiment [15] was characterised by a dissociation constant (Kd) of 1670 pM.

B2: WBP3311_2.615.8 (antibody, V domains shown)
VH: QVQLQQSGPELVKPGTSMKISCKASGYSFTDFYTHWVRQRPGQGLEWIGWIFPGSDNIKYNEKFKGKATLTADTSSSTAYMQLSSLTSEDSAVYFCARDSVSVYYFDYWGQGTTLTVSS
VL: DIVMSQSPSSLAVTAGEKVTMSCKSSQSLLNIRTRKNYLAWYQQKPGQSPKLLIYWASTRDSGVPDRFTGSGSGTDFTLTISSVQAEDLAVYYCTQSFILRTFGGGTKLEIK
notes: Mouse monoclonal antibody from hybridoma; also called W3311-2.615.8
For the molecule B2, the values for the EC50 in experiment [2], in experiment [3] and in experiment [4] were 4650 pM, 33 pM and 25 pM, respectively. The “MFI (FACS)” value in experiment [2] turned out to be 2220 MFI. Further, the “ELISA (A450)” value in experiment [5] came to 1.55 A450; in experiment [6], 0.05 A450; in experiment [7], 0.05 A450; in [11], 2.82 A450; in experiment [12] it was 0.471 A450; in experiment [13] it was 2.71 A450. Also, the binding result in [8], in experiment [9] and in experiment [10] was “no binding” in each case. Also, the “Best fit-Bmax” value in experiment [15] was 1.2e-10. In addition, binding in [15] was characterised by a dissociation constant (Kd) of 2230 pM.
